Experimental findings from patent US7563583B2, “Heregulin variants” (Genentech, Inc., priority 1997, dated 2009) are described below.

Positions count from the first letter of the chain named.

Data set [1] has as its target T1, ErbB-3-Ig (Homo sapiens, UniProt P21860).
T1 construct: expressed the extracellular domain (ECD) of the ErbB-2, ErbB-3, or ErbB-4 receptor fused to a human IgG constant domain; made in house; host or cells: HEK-293 cells, secreted, Protein A purified
In words: Phage ELISA of phage-displayed HRG-β1 variants, binding to ErbB-3-Ig. The procedure: To produce phage displaying the domains, mutagenesis reaction mixtures were electrotransformed into XL1-Blue™ cells (Stratagene, Inc., La Jolla, Calif.), according to the manufacturer's protocol. The transformed cells were then infected with 10^14 plaque-forming units (pfu) M13K07 helper phage (Promega Corp., Madison, Wis.). Phage stocks (about 10^14 phagemid/mL) were prepared by precipitating culture broths from the cells after 18-24 hours (h) of growth with 20% PEG(2000)/2.5 M NaCl, according to the method of Sambrook and Maniatis, Molecular Cloning a Laboratory Manual Cold Spring Harbor Press 429 (1989). […]
Serial dilutions of soluble ErbB-2/3-Ig (competitor) and a concentration of phage predetermined to give 60% saturation (without competitor) were added to the wells in 100 μL binding buffer. […] The amount of phage binding was determined by assaying horseradish peroxidase activity using o-phenylenediamine dihydrochloride) substrate solution (Sigma Chemical Company, St. Louis, Mo.). EC50 values were calculated as the concentration of soluble ErbB-2/3-Ig required to compete half of the phage off the plate.
Alanine-substituted variants were generated by site-directed mutagenesis according to Kunkel et al., Methods Enzymol. […] The affinities of the alanine-substituted variants for ErbB-3-Ig and ErbB-4-Ig was determined by phage ELISA as described in Example 1. […]
(In general: In an ELISA, binding on a coated surface is turned into a signal by an enzyme label.)

Data set [2] has as its system ErbB-2/3-Ig. In words: Inhibition of 125I-HRG binding by soluble HRG-β1 EGF variants. Conditions: ErbB-2/3-Ig versus ErbB-3-Ig homodimer.
Procedure: The affinities of the soluble variants for ErbB-Ig were determined by measuring inhibition of ^125I-HRG binding to ErbB-2/3, -3 and -4 receptor-Ig fusions, as previously described in Example 1.
In data set [3] the test system is ErbB-3 or ErbB-4 receptors. The experiment in a line: Alanine scan of the HRG-β1 EGF-like domain by phage ELISA (FIG. 2). The class given is binding. The conditions noted are these: ratio of variant EC50 to wild-type EC50. As for the experimental part: The X axis lists each amino acid that was changed to alanine and its position. […] The EC50 was calculated as the concentration of soluble receptor fusion required to displace 50% of the total amount of phage bound to immobilized receptor fusion. ErbB-3 binding results are shown with black bars, and ErbB-4 binding results are shown with white bars.
Alanine-substituted variants were generated by site-directed mutagenesis according to Kunkel et al., Methods Enzymol. 154:367-82 (1987) (hereinafter “Kunkel mutagenesis”), using uracil-containing single-stranded DNA template prepared from pHRG2-g3. pHRG2-g3, which is described in Example 1, expressed HRG-β1 177-244 fused to pIII 247. A series of oligonucleotides was used to generate a series of constructs that expressed a series of variants in which consecutive residues were mutated to alanine. Phage stocks were prepared from these constructs as described in Example 1, except that PEG(8000) was used to precipitate the phage. The affinities of the alanine-substituted variants for ErbB-3-Ig and ErbB-4-Ig was determined by phage ELISA as described in Example 1.

Data set [4] deals with T1, ErbB-3-Ig. In words: Inhibition of 125I-HRG-β1 177-244 binding by soluble Trx-variant fusions. Conditions: soluble thioredoxin (Trx)-variant fusions; HRG-β1 = recombinant HRG-β1 177-244. The procedure:
(§1) The affinities of the Trx-variant fusions for ErbB receptor-Ig fusions were determined by measuring inhibition of ^125I-HRG-β1 177-244 binding to ErbB-3-Ig and ErbB-4-Ig. Receptor fusions were coated on plates (Nunc Maxisorp C™ break-apart strip wells, Inter Med, Denmark) via anti-human IgG, as described in Example 1 for phage ELISA. Binding assays were carried out with a constant amount of ^125I-HRG-β1 177-244 (100-300 pM) and varying concentrations (100 pM-4 μM) of unlabeled Trx-variant fusion. Following incubation for 1-3 h at room temperature, plates were washed, and the amount of bound ^125I-HRG-β1 177-244 in each well was counted on a gamma counter (Isodata, ICN Biomedic Systems, Huntsville, Ala.). For the ErbB-3 binding assays, the blocking buffer was TBST (0.025 M Tris-HCl [pH 7.5], 0.15 M NaCl, 0.02% Tween 20™) containing 1% BSA; the binding buffer was RPMI 1640™ cell culture media (Gibco-BRL, Gaithersburg, Md.) containing 2 mM glutamine, 100 U/mL penicillin, 100 μg/mL streptomycin, 10 mM HEPES buffer (pH 7.2), 0.2% BSA; and the wash buffer was TBST. For the ErbB-4 binding assays, PBS containing 1% BSA was used as the blocking and binding buffers, and the wash buffer was PBS containing 0.05% Tween 20™.

Data set [5] concerns the target T2, ErbB-4-Ig (Homo sapiens, UniProt Q15303).
T2 construct: expressed the extracellular domain (ECD) of the ErbB-2, ErbB-3, or ErbB-4 receptor fused to a human IgG constant domain; made in house; host or cells: HEK-293 cells, secreted, Protein A purified
The description is as above. Conditions: soluble thioredoxin (Trx)-variant fusions; HRG-β1 = recombinant HRG-β1 177-244. As for the experimental part:
as §1

T1 sequence (P21860 with tags, fused parts or gaps): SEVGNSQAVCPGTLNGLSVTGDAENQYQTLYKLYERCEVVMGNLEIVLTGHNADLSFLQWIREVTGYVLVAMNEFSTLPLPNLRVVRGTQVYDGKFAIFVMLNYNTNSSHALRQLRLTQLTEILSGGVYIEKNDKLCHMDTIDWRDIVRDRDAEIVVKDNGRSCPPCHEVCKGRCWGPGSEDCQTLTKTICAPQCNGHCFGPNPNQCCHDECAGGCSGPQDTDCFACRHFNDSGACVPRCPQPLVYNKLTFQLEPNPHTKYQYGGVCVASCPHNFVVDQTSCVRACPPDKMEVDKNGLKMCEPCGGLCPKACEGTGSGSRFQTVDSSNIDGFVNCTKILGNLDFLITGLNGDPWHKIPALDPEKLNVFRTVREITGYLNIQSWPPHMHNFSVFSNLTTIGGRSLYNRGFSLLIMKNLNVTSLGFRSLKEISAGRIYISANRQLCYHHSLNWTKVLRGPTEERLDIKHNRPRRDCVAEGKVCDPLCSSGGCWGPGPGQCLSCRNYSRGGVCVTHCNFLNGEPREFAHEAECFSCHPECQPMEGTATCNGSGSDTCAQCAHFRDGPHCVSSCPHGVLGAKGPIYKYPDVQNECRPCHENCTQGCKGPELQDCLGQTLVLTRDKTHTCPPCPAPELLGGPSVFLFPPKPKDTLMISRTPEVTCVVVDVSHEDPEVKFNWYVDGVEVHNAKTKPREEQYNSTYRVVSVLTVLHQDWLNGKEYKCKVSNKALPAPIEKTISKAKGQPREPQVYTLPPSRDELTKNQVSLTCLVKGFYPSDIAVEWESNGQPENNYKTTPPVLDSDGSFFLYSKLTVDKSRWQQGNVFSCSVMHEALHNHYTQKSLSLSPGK
T2 sequence (Q15303 with tags, fused parts or gaps): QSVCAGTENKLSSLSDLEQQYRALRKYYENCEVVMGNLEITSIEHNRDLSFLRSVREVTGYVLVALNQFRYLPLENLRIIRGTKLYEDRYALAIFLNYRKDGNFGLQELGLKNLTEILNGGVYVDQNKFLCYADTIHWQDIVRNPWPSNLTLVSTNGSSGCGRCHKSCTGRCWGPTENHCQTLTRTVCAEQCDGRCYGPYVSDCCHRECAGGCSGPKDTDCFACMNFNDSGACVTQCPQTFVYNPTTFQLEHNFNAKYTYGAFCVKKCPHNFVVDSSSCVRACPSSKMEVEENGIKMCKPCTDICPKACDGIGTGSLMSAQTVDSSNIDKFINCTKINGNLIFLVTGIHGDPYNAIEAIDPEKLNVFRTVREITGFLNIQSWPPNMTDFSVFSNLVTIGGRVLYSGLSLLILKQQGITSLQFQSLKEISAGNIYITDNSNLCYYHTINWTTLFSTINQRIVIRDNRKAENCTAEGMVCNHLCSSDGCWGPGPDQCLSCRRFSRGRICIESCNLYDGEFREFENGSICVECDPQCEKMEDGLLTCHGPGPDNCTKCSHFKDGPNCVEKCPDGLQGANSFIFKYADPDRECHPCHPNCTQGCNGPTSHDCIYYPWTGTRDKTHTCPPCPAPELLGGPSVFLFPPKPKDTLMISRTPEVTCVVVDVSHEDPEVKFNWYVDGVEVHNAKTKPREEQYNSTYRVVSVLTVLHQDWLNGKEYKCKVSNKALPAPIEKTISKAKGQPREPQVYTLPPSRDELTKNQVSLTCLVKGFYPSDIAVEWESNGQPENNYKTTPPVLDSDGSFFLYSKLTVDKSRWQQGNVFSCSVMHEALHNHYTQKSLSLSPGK

In the case of “B10: HRG-β1 EGF library B variant: A183D, E184K, K185S, E186R, K187E, T188G, M226I (SHLVKCDKSREGFCVNGGECFMVKDLSNPSRYLCKCPNEFTGDRCQNYVIAS; left off: large carriers; small tags and cut ends) [Variant B10]”, the “increase in ErbB-3 receptor (ErbB-3-Ig) affinity over wild-type HRG-β1 EGF” value in data set [1] (phage ELISA) is listed as “up to 26 fold”.

B1: HRG8: wild-type HRG-β1 177-228 (minimal EGF-like domain); on phage linked via (GGGS)3 to pIII 323, or soluble (protein)
chain: SHLVKCAEKEKTFCVNGGECFMVKDLSNPSRYLCKCPNEFTGDRCQNYVMASGGGSGGGSGGGSNSQMAQVGDGDNSPLMNNFRQYLPSLPQSVECRPFVFSAGKPYEFSIDCDKINLFRGVFAFLLYVATFMYVFSTFANILRNKES
With B1, the “higher affinity for the 2/3-heterodimer versus the 3/3 homodimer” value in data set [2] is reported as “approximately 100 fold”.

B2: P205: HRG-β1 variant with P205 mutated to alanine (protein)
chain: SHLVKCAEKEKTFCVNGGECFMVKDLSNASRYLCKCPNEFTGDRCQNYVMASFYKHLGIEFMEAEELY
modifications: left off: large carriers; small tags and cut ends
notes: HRG-β1 variant with P205 mutated to alanine
For B2, the “effect of substitution with alanine on affinity for the ErbB-3 or ErbB-4 receptors” value (“effect of substitution with alanine” below) in data set [3] is on record as “two”.

B3: F229: HRG-β1 variant with F229 mutated to alanine (protein)
chain: B2 chain with A29P, F53A
modifications: left off: large carriers; small tags and cut ends
notes: HRG-β1 variant with F229 mutated to alanine
As for B3, the “effect of substitution with alanine” value in data set [3] was “two and five”.

B4: E215: HRG-β1 variant with E215 mutated to alanine (protein)
chain: B2 chain with A29P, E39A
modifications: left off: large carriers; small tags and cut ends
notes: HRG-β1 variant with E215 mutated to alanine
On to B4, for which the “effect of substitution with alanine” value in data set [3] is given as “two”.

B5: R220: HRG-β1 variant with R220 mutated to alanine (protein)
chain: B2 chain with A29P, R44A
modifications: left off: large carriers; small tags and cut ends
notes: HRG-β1 variant with R220 mutated to alanine
Take B5: in data set [4], the “Sol EC50, binding to the ErbB-3 receptor” value is “no binding”. In data set [5], the “Sol EC50, binding to the ErbB-4 receptor” value is on record as “no binding”.

B6: L209: HRG-β1 variant with L209 mutated to alanine (protein, UniProt Q02297 1-640, looked up, variant L209A)
chain: MSERKEGRGKGKGKKKERGSGKKPESAAGSQSPALPPRLKEMKSQESAAGSKLVLRCETSSEYSSLRFKWFKNGNELNRKNKPQNIKIQKKPGKSELRINKASLADSGEYMCKVISKLGNDSASANITIVESNEIITGMPASTEGAYVSSESPIRISVSTEGANTSSSTSTSTTGTSHLVKCAEKEKTFCVNGGECFMVKDLSNPSRYACKCQPGFTGARCTENVPMKVQNQEKAEELYQKRVLTITGICIALLVVGIMCVVAYCKTKKQRKKLHDRLRQSLRSERNNMMNIANGPHHPNPPPENVQLVNQYVSKNVISSEHIVEREAETSFSTSHYTSTAHHSTTVTQTPSHSWSNGHTESILSESHSVIVMSSVENSRHSSPTGGPRGRLNGTGGPRECNSFLRHARETPDSYRDSPHSERYVSAMTTPARMSPVDFHTPSSPKSPPSEMSPPVSSMTVSMPSMAVSPFMEEERPLLLVTPPRLREKKFDHHPQQFSSFHHNPAHDSNSLPASPLRIVEDEEYETTQEYEPAQEPVKKLANSRRAKRTKPNGHIANRLEVDSNTSSQSSNSESETEDERVGEDTPFLGIQNPLAASLEATPAFRLADSRTNPAGRFSTQEEIQARLSSVIANQDPIAV
With B6, the “effect of substitution with alanine” value in data set [3] was “two and five”.

B7: E184: HRG-β1 variant with E184 mutated to alanine (protein, UniProt Q02297 1-640, looked up, variant E184A)
chain: B6 chain with E184A, A209L
In the case of B7, in data set [3], the “effect of substitution with alanine” value is listed as “two”.

B8: T188: HRG-β1 variant with T188 mutated to alanine (protein, UniProt Q02297 1-640, looked up, variant T188A)
chain: B6 chain with T188A, A209L
As for B8, the “effect of substitution with alanine” value in data set [3] is “two and five”.

B9: HRG63: HRG-β1 EGF control variant in which HRG-β1 202-204 of HRG8 are deleted (protein)
chain: SHLVKCAEKEKTFCVNGGECFMVKDPSRYLCKCPNEFTGDRCQNYVMASGGGSGGGSGGGSNSQMAQVGDGDNSPLMNNFRQYLPSLPQSVECRPFVFSAGKPYEFSIDCDKINLFRGVFAFLLYVATFMYVFSTFANILRNKES
B9: the “Phage ErbB-3 EC50 (wt)/EC50 (mut)” value in data set [1] (relative to wild-type HRG-β1 EGF-phage in the same assay run, above 1 = higher affinity, ± SD of 2-4 duplicate runs) was determined as 1.1 ± 0.8.
